In patent US20200262877A1, “ION CHANNEL-BINDING PEPTIDES AND METHODS OF USE THEREOF” (priority 2017, published 2020):

Key:
5HT3a = target: T1, 5HT3a (Homo sapiens, UniProt P46098); test: Ion channel panel (IonWorks Barracuda): 5HT3a; type: cell-based
T1 construct: host or cells: HEK293 or CHO
T1 sequence (P46098 whole entry, looked up): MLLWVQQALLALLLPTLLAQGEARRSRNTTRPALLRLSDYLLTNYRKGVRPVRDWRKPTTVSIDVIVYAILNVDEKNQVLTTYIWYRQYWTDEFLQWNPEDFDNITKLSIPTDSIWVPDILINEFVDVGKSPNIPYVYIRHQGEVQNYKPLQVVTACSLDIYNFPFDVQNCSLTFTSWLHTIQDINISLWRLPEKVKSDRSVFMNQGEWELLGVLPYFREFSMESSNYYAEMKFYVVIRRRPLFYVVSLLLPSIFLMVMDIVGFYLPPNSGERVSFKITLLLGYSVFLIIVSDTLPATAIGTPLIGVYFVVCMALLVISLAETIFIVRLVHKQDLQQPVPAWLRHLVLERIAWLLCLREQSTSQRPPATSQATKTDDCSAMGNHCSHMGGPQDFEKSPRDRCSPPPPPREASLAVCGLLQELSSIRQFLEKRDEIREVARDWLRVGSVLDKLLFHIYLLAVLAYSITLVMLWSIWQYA
Summary of the method: (§1)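 Peptides were tested in duplicate at final 20 μM and 200 nM, with concentration set by amino acid analysis, in HEPES-buffered saline. They were applied for at least 5 min to HEK293 or CHO cells transfected with each channel. Currents were expressed as % inhibition, 1-(Ipeptide/Icontrol)×100, or % activation, Ipeptide/Icontrol×100, against a channel-matched reference compound.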

α3β4 = target: T2, α3β4 (Homo sapiens, UniProt P30926+P32297); test: Ion channel panel (IonWorks Barracuda): α3β4; type: cell-based; details: 100% = no change, <100% = inhibition
T2 construct: host or cells: HEK293 or CHO
Summary of the method: as §1

α4β2 = target: T3, α4β2 (Homo sapiens, UniProt P17787+P43681); test: Ion channel panel (IonWorks Barracuda): α4β2; type: cell-based; details: 100% = no change, <100% = inhibition
T3 construct: host or cells: HEK293 or CHO
Summary of the method: as §1

Cav2.1 = target: T4, Cav2.1 (Homo sapiens, UniProt O00555); test: cell-based; details: 100% = no change, <100% = inhibition
T4 construct: host or cells: HEK293 or CHO
Summary of the method: as §1

Cav2.2 = target: T5, Cav2.2 (Homo sapiens, UniProt Q00975); test: cell-based; details: 100% = no change, <100% = inhibition
T5 construct: host or cells: HEK293 or CHO
Summary of the method: as §1

Kv2.1 = target: T6, Kv2.1 (Homo sapiens, UniProt Q14721); test: cell-based; details: 100% = no change, <100% = inhibition
T6 construct: host or cells: HEK293 or CHO
Summary of the method: as §1

GABA = test: Ion channel panel (IonWorks Barracuda): GABA; type: cell-based; details: 100% = no change, <100% = inhibition
Summary of the method: as §1

Nav1.5 = Nav1.5 (Homo sapiens, UniProt Q14524); test: in vitro; details: 100% = no change; for Activity of Nav1.5 with peptide, expressed as a percentage of the reference compound: peptide at 0.2 μM; for Activity of Nav1.5 with peptide (percentage of the reference compound): peptide at 20 μM
Summary of the method: as §1

hERG = hERG (Homo sapiens, UniProt Q12809); test: in vitro; details: 100% = no change, <100% = inhibition
Summary of the method: as §1

Kir2.1 = target: T7, Kir2.1 (Homo sapiens, UniProt P63252); test: Ion channel panel (IonWorks Barracuda): Kir2.1; type: cell-based; details: 100% = no change, <100% = inhibition
T7 construct: host or cells: HEK293 or CHO
Summary of the method: as §1

Kv1.1 = target: T8, Kv1.1 (Homo sapiens, UniProt Q09470); test: cell-based; type: cell-based; details: 100% = no change, <100% = inhibition
T8 construct: host or cells: HEK293 or CHO
Summary of the method: as §1

Kv1.2 = target: T9, Kv1.2 (Homo sapiens, UniProt P16389); test: cell-based; type: cell-based; details: 100% = no change, <100% = inhibition
T9 construct: host or cells: HEK293 or CHO
Summary of the method: as §1

Kv1.3 = target: T10, Kv1.3 (Homo sapiens, UniProt P22001); test: cell-based; type: cell-based; details: 100% = no change, <100% = inhibition
T10 construct: host or cells: HEK293 or CHO
Summary of the method: as §1

Nav1.7 = target: T11, Nav1.7 (Homo sapiens, UniProt Q15858); test: cell-based; type: cell-based; details: 100% = no change; for Activity of Nav1.7 with peptide, expressed as a percentage of the reference compound: peptide at 0.2 μM; for Activity of Nav1.7 with peptide (percentage of the reference compound): peptide at 20 μM
T11 construct: host or cells: HEK293 or CHO

NR2A = target: T12, NR2A (Homo sapiens, UniProt Q12879); test: Ion channel panel (IonWorks Barracuda): NR2A; type: cell-based; details: 100% = no change, <100% = inhibition
T12 construct: host or cells: HEK293 or CHO
Summary of the method: as §1

NR2B = target: T13, NR2B (Homo sapiens, UniProt Q13224); test: Ion channel panel (IonWorks Barracuda): NR2B; type: cell-based; details: 100% = no change, <100% = inhibition
T13 construct: host or cells: HEK293 or CHO
Summary of the method: as §1

TRPA1 = target: T14, TRPA1 (Homo sapiens, UniProt O75762); test: Ion channel panel (IonWorks Barracuda): TRPA1; type: cell-based; details: 100% = no change, <100% = inhibition
T14 construct: host or cells: HEK293 or CHO
Summary of the method: as §1

TRPV1 = target: T15, TRPV1 (Homo sapiens, UniProt Q8NER1); test: Ion channel panel (IonWorks Barracuda): TRPV1; type: cell-based; details: 100% = no change, <100% = inhibition
T15 construct: host or cells: HEK293 or CHO
Summary of the method: as §1

[1] = first of two Nav1.5 columns (probably TP1)
[2] = second of two Nav1.5 columns (probably TP2)
[3] = first of two Nav1.7 columns (probably TP1)
[4] = second of two Nav1.7 columns (probably TP2)

T11 sequence (Q15858 whole entry): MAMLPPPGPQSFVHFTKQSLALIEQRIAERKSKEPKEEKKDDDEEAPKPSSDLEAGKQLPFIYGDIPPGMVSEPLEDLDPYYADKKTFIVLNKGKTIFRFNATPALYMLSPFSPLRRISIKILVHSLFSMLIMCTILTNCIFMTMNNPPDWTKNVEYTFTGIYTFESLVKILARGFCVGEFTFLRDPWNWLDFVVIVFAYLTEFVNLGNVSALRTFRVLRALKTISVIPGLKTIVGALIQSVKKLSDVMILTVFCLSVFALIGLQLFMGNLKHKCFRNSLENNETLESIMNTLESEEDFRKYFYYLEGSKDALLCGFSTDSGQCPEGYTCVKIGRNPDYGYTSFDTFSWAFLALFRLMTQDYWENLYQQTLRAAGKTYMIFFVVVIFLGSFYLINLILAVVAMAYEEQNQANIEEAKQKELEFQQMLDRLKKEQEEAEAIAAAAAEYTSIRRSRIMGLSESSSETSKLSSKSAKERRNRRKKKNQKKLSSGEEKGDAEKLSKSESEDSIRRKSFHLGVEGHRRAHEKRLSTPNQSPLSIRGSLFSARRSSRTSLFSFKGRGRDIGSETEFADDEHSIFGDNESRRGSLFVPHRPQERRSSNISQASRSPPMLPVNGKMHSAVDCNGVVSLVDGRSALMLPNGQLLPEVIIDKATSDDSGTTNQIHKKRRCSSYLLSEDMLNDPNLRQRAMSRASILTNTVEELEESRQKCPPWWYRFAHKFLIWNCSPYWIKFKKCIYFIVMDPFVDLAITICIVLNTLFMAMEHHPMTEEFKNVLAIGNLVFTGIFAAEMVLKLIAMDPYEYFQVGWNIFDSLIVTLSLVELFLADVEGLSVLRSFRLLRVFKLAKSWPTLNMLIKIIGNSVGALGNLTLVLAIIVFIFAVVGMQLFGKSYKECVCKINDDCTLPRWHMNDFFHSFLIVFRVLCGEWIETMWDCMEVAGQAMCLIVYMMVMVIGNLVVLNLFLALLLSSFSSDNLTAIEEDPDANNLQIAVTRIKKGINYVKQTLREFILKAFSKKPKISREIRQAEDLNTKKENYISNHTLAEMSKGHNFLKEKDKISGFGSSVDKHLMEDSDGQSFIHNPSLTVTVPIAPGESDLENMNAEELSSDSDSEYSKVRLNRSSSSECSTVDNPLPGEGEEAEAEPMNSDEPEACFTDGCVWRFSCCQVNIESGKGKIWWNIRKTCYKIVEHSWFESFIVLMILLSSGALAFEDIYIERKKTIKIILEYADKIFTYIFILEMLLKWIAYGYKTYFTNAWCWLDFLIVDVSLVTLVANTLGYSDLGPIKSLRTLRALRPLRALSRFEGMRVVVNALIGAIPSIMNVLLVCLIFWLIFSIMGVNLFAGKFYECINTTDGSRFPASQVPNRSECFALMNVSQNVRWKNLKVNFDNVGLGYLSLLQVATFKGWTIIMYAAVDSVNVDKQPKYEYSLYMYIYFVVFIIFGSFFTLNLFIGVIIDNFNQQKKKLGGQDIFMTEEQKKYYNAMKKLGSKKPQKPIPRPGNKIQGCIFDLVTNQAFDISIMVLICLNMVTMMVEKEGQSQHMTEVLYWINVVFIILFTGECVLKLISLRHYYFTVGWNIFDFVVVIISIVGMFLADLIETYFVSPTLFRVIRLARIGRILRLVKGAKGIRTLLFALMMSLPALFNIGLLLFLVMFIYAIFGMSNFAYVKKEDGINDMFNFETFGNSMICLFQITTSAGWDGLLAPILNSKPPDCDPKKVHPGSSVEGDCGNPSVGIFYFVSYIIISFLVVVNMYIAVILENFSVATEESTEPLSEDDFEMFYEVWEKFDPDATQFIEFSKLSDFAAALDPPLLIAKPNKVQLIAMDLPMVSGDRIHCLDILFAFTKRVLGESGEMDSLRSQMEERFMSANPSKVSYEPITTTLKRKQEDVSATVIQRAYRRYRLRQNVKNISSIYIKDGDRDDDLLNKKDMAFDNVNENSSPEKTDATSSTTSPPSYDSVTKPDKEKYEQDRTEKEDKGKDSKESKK
Nav1.5, sequence (Q14524 whole entry): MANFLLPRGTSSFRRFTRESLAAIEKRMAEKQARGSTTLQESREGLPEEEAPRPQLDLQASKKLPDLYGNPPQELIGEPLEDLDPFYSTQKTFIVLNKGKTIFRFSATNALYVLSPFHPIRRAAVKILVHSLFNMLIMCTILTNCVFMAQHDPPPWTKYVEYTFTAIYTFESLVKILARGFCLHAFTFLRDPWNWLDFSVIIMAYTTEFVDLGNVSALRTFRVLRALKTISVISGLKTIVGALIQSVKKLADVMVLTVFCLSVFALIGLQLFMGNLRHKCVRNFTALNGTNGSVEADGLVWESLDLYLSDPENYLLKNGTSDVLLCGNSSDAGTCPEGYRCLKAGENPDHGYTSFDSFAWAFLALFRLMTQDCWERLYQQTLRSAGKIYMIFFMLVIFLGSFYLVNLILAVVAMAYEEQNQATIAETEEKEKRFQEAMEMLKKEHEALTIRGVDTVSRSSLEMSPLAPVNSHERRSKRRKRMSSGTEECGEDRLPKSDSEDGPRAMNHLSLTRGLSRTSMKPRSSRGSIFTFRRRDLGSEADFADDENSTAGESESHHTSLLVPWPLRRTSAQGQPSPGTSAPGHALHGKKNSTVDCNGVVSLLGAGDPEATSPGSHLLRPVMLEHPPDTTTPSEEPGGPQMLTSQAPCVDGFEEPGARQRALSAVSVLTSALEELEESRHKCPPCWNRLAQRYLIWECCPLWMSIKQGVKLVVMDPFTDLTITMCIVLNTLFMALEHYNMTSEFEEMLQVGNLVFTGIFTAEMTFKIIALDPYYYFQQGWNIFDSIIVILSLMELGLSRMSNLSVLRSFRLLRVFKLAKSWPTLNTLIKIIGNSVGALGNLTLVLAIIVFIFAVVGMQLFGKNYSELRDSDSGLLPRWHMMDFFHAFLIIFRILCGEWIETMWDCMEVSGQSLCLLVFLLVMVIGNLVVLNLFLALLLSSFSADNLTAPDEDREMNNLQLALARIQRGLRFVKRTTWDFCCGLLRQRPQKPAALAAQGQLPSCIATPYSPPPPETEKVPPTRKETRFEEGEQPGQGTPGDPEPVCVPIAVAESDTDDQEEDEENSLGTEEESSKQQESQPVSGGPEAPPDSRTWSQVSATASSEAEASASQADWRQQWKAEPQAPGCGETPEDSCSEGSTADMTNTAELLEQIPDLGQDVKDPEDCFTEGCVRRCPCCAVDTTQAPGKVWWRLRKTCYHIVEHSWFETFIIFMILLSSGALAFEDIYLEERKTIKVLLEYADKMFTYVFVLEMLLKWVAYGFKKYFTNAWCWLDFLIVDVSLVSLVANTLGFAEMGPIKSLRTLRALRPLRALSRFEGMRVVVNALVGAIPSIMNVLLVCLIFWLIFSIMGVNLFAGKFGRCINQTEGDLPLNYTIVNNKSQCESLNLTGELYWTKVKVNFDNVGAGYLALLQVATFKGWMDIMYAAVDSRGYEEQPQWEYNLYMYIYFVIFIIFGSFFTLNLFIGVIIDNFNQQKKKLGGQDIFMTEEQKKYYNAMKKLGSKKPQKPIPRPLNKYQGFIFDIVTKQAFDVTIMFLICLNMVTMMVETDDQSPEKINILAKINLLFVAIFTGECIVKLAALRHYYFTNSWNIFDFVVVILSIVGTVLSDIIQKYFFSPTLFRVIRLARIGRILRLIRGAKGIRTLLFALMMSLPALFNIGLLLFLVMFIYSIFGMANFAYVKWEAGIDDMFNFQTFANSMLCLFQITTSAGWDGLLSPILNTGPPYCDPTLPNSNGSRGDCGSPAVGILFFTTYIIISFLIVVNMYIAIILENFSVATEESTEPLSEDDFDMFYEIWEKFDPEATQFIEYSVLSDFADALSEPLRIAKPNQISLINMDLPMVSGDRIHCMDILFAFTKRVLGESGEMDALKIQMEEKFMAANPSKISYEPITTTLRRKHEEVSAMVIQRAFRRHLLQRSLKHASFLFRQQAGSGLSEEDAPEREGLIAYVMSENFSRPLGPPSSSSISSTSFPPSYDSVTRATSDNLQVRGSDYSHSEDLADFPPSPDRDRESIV
T15 sequence (Q8NER1 whole entry): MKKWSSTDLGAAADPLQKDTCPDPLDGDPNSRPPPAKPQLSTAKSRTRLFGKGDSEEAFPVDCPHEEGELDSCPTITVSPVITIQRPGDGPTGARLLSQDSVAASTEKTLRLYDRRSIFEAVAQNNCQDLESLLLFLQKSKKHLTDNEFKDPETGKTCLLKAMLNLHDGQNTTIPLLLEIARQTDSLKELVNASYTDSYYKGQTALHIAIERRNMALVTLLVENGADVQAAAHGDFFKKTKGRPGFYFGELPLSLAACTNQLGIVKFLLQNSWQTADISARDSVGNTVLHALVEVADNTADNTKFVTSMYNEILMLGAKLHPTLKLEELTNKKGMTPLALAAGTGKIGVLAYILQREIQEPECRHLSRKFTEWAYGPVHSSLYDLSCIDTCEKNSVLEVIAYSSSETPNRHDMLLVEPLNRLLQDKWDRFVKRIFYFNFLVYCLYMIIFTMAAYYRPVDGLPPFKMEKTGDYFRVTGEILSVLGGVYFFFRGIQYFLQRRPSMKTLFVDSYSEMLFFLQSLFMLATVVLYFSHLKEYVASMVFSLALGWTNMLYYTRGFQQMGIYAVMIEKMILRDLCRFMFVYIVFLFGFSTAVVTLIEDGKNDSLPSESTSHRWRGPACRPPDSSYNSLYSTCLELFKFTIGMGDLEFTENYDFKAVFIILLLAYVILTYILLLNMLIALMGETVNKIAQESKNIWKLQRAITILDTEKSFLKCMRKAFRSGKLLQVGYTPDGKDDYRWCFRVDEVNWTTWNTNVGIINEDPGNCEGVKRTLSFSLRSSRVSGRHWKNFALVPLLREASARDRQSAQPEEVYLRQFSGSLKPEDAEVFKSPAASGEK

38 (GSGIGDPVTCLKSGAICHPVFCPRRYKQIGTCGLPGTKCCKKP) [compound 38]
Activity of 5HT3a with peptide (percentage of the reference compound) (5HT3a): 98%
Activity of 5HT3a with peptide, expressed as a percentage of the reference compound (5HT3a): 97%
Activity of a3b4 with peptide, expressed as a percentage of the reference compound (α3β4; peptide at 0.2 μM): 99%
Activity of a3b4 with peptide (percentage of the reference compound) (α3β4; peptide at 20 μM): 92%
Activity of a4b2 with peptide, expressed as a percentage of the reference compound (α4β2; peptide at 0.2 μM): 107%
Activity of a4b2 with peptide (percentage of the reference compound) (α4β2; peptide at 20 μM): 88%
Activity of Cav2.1 with peptide, expressed as a percentage of the reference compound (Cav2.1; peptide at 0.2 μM): 95%
Activity of Cav2.1 with peptide (percentage of the reference compound) (Cav2.1; peptide at 20 μM): 93%
Activity of Cav2.2 with peptide, expressed as a percentage of the reference compound (Cav2.2; peptide at 0.2 μM): 117%
Activity of Cav2.2 with peptide (percentage of the reference compound) (Cav2.2; peptide at 20 μM): 89%
Activity of Kv2.1 with peptide, expressed as a percentage of the reference compound (Kv2.1; peptide at 0.2 μM): 100%
Activity of Kv2.1 with peptide (percentage of the reference compound) (Kv2.1; peptide at 20 μM): 125%
Activity of GABA with peptide, expressed as a percentage of the reference compound (GABA; peptide at 0.2 μM): 121%
Activity of GABA with peptide (percentage of the reference compound) (GABA; peptide at 20 μM): 112%
Activity of Nav1.5 with peptide, expressed as a percentage of the reference compound (Nav1.5; [1]): 124%
Activity of Nav1.5 with peptide, expressed as a percentage of the reference compound (Nav1.5; [2]): 124%
Activity of Nav1.5 with peptide (percentage of the reference compound) (Nav1.5; [1]): 107%
Activity of Nav1.5 with peptide (percentage of the reference compound) (Nav1.5; [2]): 112%
Activity of hERG with peptide, expressed as a percentage of the reference compound (hERG; peptide at 0.2 μM): 86%
Activity of hERG with peptide (percentage of the reference compound) (hERG; peptide at 20 μM): 71%
Activity of Kir2.1 with peptide, expressed as a percentage of the reference compound (Kir2.1; peptide at 0.2 μM): 88%
Activity of Kir2.1 with peptide (percentage of the reference compound) (Kir2.1; peptide at 20 μM): 126%
Activity of Kv1.1 with peptide, expressed as a percentage of the reference compound (Kv1.1; peptide at 0.2 μM): 97%
Activity of Kv1.1 with peptide (percentage of the reference compound) (Kv1.1; peptide at 20 μM): 73%
Activity of Kv1.2 with peptide, expressed as a percentage of the reference compound (Kv1.2; peptide at 0.2 μM): 100%
Activity of Kv1.2 with peptide (percentage of the reference compound) (Kv1.2; peptide at 20 μM): 84%
Activity of Kv1.3 with peptide, expressed as a percentage of the reference compound (Kv1.3; peptide at 0.2 μM): 101%
Activity of Kv1.3 with peptide (percentage of the reference compound) (Kv1.3; peptide at 20 μM): 31%
Activity of Nav1.7 with peptide, expressed as a percentage of the reference compound (Nav1.7; [3]): 83%
Activity of Nav1.7 with peptide, expressed as a percentage of the reference compound (Nav1.7; [4]): 143%
Activity of Nav1.7 with peptide (percentage of the reference compound) (Nav1.7; [3]): 86%
Activity of Nav1.7 with peptide (percentage of the reference compound) (Nav1.7; [4]): 86%
Activity of NR2A with peptide, expressed as a percentage of the reference compound (NR2A; peptide at 0.2 μM): 100%
Activity of NR2A with peptide (percentage of the reference compound) (NR2A; peptide at 20 μM): 90%
Activity of NR2B with peptide, expressed as a percentage of the reference compound (NR2B; peptide at 0.2 μM): 83%
Activity of NR2B with peptide (percentage of the reference compound) (NR2B; peptide at 20 μM): 88%
Activity of TRPA1 with peptide, expressed as a percentage of the reference compound (TRPA1; peptide at 0.2 μM): 138%
Activity of TRPA1 with peptide (percentage of the reference compound) (TRPA1; peptide at 20 μM): 108%
Activity of TRPV1 with peptide, expressed as a percentage of the reference compound (TRPV1; peptide at 0.2 μM): 98%
Activity of TRPV1 with peptide (percentage of the reference compound) (TRPV1; peptide at 20 μM): 76%
